Results as given in PMC11115209.

What was measured:
His6-TBC1D15 [1] = molecular target: His6-TBC1D15 (UniProt Q8TC07); assay: immunoprecipitation with Flag beads, immunoblot band quantification; conditions: HA-SUMO2 co-expressed, read off a plot, scale: relative band intensity
His6-TBC1D15 [2] = molecular target: His6-TBC1D15 (UniProt Q8TC07); assay: HA beads pulldown, immunoblot band quantification; conditions: read off a plot
[3] = + SulF (GST-SulF), parent: est. 0.16

UniProt Q8TC07, sequence (Q8TC07 whole entry, looked up): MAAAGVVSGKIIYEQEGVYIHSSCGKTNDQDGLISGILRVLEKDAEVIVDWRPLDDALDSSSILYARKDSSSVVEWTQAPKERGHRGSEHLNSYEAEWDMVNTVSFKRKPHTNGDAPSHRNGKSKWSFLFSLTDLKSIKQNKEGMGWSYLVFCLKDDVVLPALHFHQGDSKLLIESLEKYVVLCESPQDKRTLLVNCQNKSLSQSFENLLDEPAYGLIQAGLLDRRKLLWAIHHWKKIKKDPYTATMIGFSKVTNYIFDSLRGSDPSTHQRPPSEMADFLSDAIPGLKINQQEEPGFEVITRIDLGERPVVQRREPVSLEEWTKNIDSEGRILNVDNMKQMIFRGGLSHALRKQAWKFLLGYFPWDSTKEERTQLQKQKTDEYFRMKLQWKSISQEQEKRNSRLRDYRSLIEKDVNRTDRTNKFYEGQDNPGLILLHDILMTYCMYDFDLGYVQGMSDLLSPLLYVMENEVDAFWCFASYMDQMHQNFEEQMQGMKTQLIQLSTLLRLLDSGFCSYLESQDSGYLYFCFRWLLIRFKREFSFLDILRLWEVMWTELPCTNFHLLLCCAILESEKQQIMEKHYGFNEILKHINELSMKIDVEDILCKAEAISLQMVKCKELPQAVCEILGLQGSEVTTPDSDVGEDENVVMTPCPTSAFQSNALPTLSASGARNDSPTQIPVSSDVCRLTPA

Flag-Rab7 WT (Rab7 part of m4) Q67L
response (His6-TBC1D15 [1]; + GST, parent: est. 0.25): 0.88 | response (His6-TBC1D15 [1]; [3]): 0.48 | response (relative ratio) (His6-TBC1D15 [2]; Buffer added after 1 h incubation): 1 | response (relative ratio) (His6-TBC1D15 [2]; GST added after 1 h incubation): 1.1 | response (relative ratio) (His6-TBC1D15 [2]; GST-SulF added after 1 h incubation (competition)): 0.34 | response (relative ratio) (His6-TBC1D15 [2]; GST-SulFIV/AA added after 1 h incubation (competition)): 1.1

Flag-Rab7 WT (Rab7 part of m4) Q67L; K175R
response (His6-TBC1D15 [1]; + GST, parent: est. 0.25): 1 | response (His6-TBC1D15 [1]; [3]): 1.1

Flag-Rab7 WT (Rab7 part of m4) T22N
response (His6-TBC1D15 [1]; + GST, parent: est. 0.25): 0.57 | response (His6-TBC1D15 [1]; [3]): 0.31
